From a protein production outcome set (Wang et al. 2014)

Assay: label from the status in PepcDB records

| Sequence | protein production |
| --- | --- |
| MVSTRTHANGPADAGRTRLLFAAEIFPMNVFSRYLIRHLFLGFAAAAGLLLPLFTTFNLINELDDVSPGGYRWTQAVLVVLMTLPRTLVELSPFIALLGGIVGLGQLSKNSELTAIRSMGFSIFRIALVALVAGILWTVSLGAIDEWVASPLQQQALQIKSTATALGEDDDITGNMLWARRGNEFVTVKSLNEQGQPVGVEIFHYRDDLSLESYIYARSATIEDDKTWILHGVNHKKWLNGKETLETLDNLAWQSAFTSMDLEELSMPGNTFSVRQLNHYIHYLQETGQPSSEYRLALWEKLGQPILTLAMILLAVPFTFSAPRSPGMGSRLAVGVIVGLLTWISYQIMVNLGLLFALSAPVTALGLPIAFVLVALSLVYWYDRQH | failed |
| MSLKKVLLCVGNELRGDDGVAIALGRLVEEQMPEWSVFFGYDTPESEFGKLRELAPDVIVVADAMSGFKEGEIEFLDLSDERTYLYSTHNLPTPILISYLRGICSKTIFLGISVLLENVLHFSEGLSQGASDSAFVALGRIKELDGMLKEGHHHHHH | not failed |
| AIAEPGSPAGAGAEAPAFYSERKLSRKQLKKLAKAEREYEEERRKELEAAQAVDTAQKRELARIESILRTHALRMEYVEPDGHCLFRALVRQLRPLIQSGLFDTYFPAADTETRSALLTWSTIPDEMEAVWLLRKTLASFIRRRGTEFFPFIVGELDPQGTLLDASDDPAERVAQYCARLEDGTLWGGQPELQAVALALRCRVFVFADPEILPNGMLVMGADDASTDTGAESVTALRVSFHKQFFSLGEHYHAVVPADDSRGDARDPRISAS | not failed |
| MSREDELLEKLDECENATAFLQVSNKIINLKLKALLPSVFVQDDLVKEYAVDPLLREDGPLVTTDVVSKLMFAMGKISLQTYADIGLYDQVLEYVVTQPEKIAFTDDVIYDFIKNQAVLSSQQDCFYLESINQLKFSSFESFSQMRYESLIKTVLKLSCEMLIERIEEEINQ | not failed |
| MQRLEVREPVPYPILVGEGVLKEVPPLAGPAALLFDRRVEGFAQEVAKALGVRHLLGLPGGEAAKSLEVYGKVLSWLAEKGLPRNATLLVVGGGTLTDLGGFVAATYLRGVAYLAFPTTTLAIVDASVGGKTGINLPEGKNLVGAFHFPQGVYAELRALKTLPLPTFKEGLVEAFKHGLIAGDEALLKVEDLTPQSPRLEAFLARAVAVKVRVTEEDPLEKGKRRLLNLGHTLGHALEAQTRHALPHGMAVAYGLLYAALLGRALGGEDLLPPVRRLLLWLSPPPLPPLAFEDLLPYLLRDKKKVSESLHWVVPLAPGRLVVRPLPEGLLREAFAAWREELKGLGLLR | not failed |
| MERVSERSLSENLRRSDREDGKIIEWEEFDHELTRLWSLSSAMKLATERKQILQPKLESLIQVSTESLRRTNELEEMRQRLEARKLLVDKTSVACKVTEQDVKKKEENLSTEVRSLLVGGTTLSIAKSKLQESNCQLEGESGYAHLKIVTNKLRKRQQFMVSQVSFIYPLKIEAGPSQDQELESFPGGSRLGTKPLSQGSVRILGLPFSMAPFTKMSFFTDKKEVQKSATALGYVAHAVSLIAPYLRVPIRYPLCLGGSKTYIRDYAPYIEPSPSDMSPITTLSQNINFVEFPLFLDGQDTTRAAYAVFLLNKNIEQLLNFVGENSLGPRQVLANLKELIRIIQSPDYIDYL | failed |
| MTGTPCPDFTLPGTAGADFQLSSSRKPLVIYFYPKDNTPGCTNESMAFRDLHPEFAALGAEIVGISRDSLKSHQNFKAKLELPFELLSDSEETACSLFGVIKMKNMYGKQVRGIERSTFVIDASGKVSREWRGVKVPGHAEEVLAYVKTLK | failed |
| WMLGIPIGGLLAFILGGAALSVFHFGMDYTNRNEFCYSCHIGMDTIVEEYQASPHFKNAQGVIAATCSDCHVPREFFAKIALKIGATADIYHKLKGDITLDNFEAEHRPRLAAEVTQQFIENKSKQCRYCHSVDKMDFEAQGRTVARRHQMMESRDQSCIDCHAGIAHHLPISLDSPET | failed |
| MATPTQTPTKAPEEPDPFYYDYNTVQTVGMTLATILFLLGILIVISKKVKCRKADSRSESPTCKSCKSELPSSAPGGGGV | not failed |
| MLAPERIHPALWRATQLAHGPTRKLPTGYADLSAQLPGGGWPLGALVELLLPQPGSGEIRLLRPALAQLEARRAIALVQPPHAPHIASWASWRLDPRQLLWVAPERPADALWAAEQILKAGSCAALLCWLPQVRPESLRRLHLAAQGGDALFVALRPAAAEQHASPAVLRLALAPAPGGLSIRIVKRRGPACEHPVHVGLEAGAGLSVFPAPHAPLDRRLPAQPVAGRRTPALVSLEHHHHHH | not failed |
